Assay results reported in publication PMC5501728.
Values belong to the substance of their own block, whether it stands above or below them.

Key:
[1] = molecular target: PGAM5 residues 81–289 (human) (UniProt Q96HS1); assay: AUC; sedimentation velocity, 4°C, 45,000 rpm, protein 50-60 μM in 50 mM Tris pH 7.5, 300 mM NaCl, 0.5 mM TCEP
[2] = molecular target: ΔN90-PGAM5, His6 tag not cleaved (for analytical SEC) (human) (UniProt Q96HS1); assay: SEC; Superdex Increase s200 10/300 GL, 50 mM Tris pH 7.5, 200 mM NaCl; His-tagged proteins at several concentrations
[3] = molecular target: ΔN54-PGAM5, His6 tag cleaved (human) (UniProt Q96HS1); assay: crystal structure; ΔN54-PGAM5-phosphate complex; sitting drop, 20°C, 18% PEG 3350, 0.1 M MES pH 5.7
[4] = molecular target: ΔN90-PGAM5 (residues 90–289), His6 tag cleaved (human) (UniProt Q96HS1); assay: crystal structure; ΔN90-PGAM5 apo and phosphate complex; sitting drop, 20°C, PEG 3350 and 5000 MME 12-20%, 0.1 M HEPES pH 7.5
[5] = molecular target: ΔN90-PGAM5 (residues 90–289), His6 tag cleaved (human) (UniProt Q96HS1); assay: AUC; sedimentation velocity, 4°C, 45,000 rpm, protein 50-60 μM in 50 mM Tris pH 7.5, 300 mM NaCl, 0.5 mM TCEP
[6] = molecular target: ΔN90-PGAM5 (residues 90–289), His6 tag cleaved (human) (UniProt Q96HS1); assay: AUC; sedimentation equilibrium, dimer to monomers (self-association model, global fit); 0.7, 0.46 and 0.35 mg/ml in 50 mM HEPES pH 7.5, 300 mM NaCl, 0.5 mM TCEP; 12,000 and 18,000 rpm

- stoichiometry N [1]: 2
Substance: PGAM5 residues 81–289 (from UniProt Q96HS1 81-289) (domain or fragment)

- stoichiometry N [2]: 2
Substance: ΔN90-PGAM5, His6 tag not cleaved (for analytical SEC) (from UniProt Q96HS1 90-289) (domain or fragment)

- stoichiometry N [3]: 12
Substance: ΔN54-PGAM5, His6 tag cleaved (from UniProt Q96HS1 54-289) (domain or fragment)

- stoichiometry N [4]: 2
- stoichiometry N [5]: 2
- Kd [6]: 480 nM
Substance: ΔN90-PGAM5 (residues 90–289), His6 tag cleaved (from UniProt Q96HS1 90-289) (domain or fragment)
